Assay: yeast display, Sf9 membrane polyspecificity reagent, FACS + sequencing; frameworks hold sequencing errors
Procedure, shortened: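 A synthetic nanobody library was expressed on Saccharomyces cerevisiae BJ5465 by galactose induction for 36–48 hours. The library was stained for 1 hour at 4 °C with 10% biotinylated, detergent-solubilized Sf9 membrane reagent and enriched with streptavidin microbeads before FACS. Low and high (top ~1%) gates were set on anti-HA fluorescence for expression and streptavidin fluorescence for reagent binding, and each polyreactivity label reflects the gate of origin.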

Sequence | polyreactivity (PSR sort gate)
QVQLVESGVGLVQAGGSLRLSCAASGIIFKNYTRGWDRPAPWKEWELVAAISWRGGRTYYADSVKGRFTISRDNAKNTVYLQMNSLKPEDTAVYYCAKELYVSYRGGPWVDYWGQGTQVTVSS | high polyreactivity
QVQLVESGGGLVQAGGSLRLSCAASGSIFEWYAMGWYRQAPGKVRELVADITYNGGSTYYADSVKGRFTISRDNAKNTVYLQMNSLKPEDTAVYYCAADYFVQVPDYYYASEYGYWGQGTQVTVSS | low polyreactivity
QVQLVESGGGLVQAGGSLRLSCAASGSTFDRYAMGWYRQAPGKERELVAAITRGGSTYYADSVKGRFTISRDNAKNTVYLQMNSLKPEDTAVYYCAARYRAYVKLTSYDWGQGTQVTVSS | high polyreactivity
QVQLVESGGGLVQAGGSLRLSCAASGSIFKVYAMGWYRQAPGKERELVASITSGGRTYADSVKGRFTISRDNAKNTVYLQMNSLKPEDTAVYYCSARSRSKFYYWGQGTQLTVSS | high polyreactivity
QVQLQESGGCLVQAGGSLRLSCAASGTNLYSLGMGWSRQAPGKRREFVASITWGTTTNYAESENGRFTISRDNAKKTVYPQRNSLKPEDTAVYYCAAPPFGDSSYHYWGQATQVTVSS | low polyreactivity
QVQLVESGGGLVQAGGSLRLSCAASGSIFYDYAMGWYSQEPGKERELVAAISSSGITYYADSVKGRFTISRDNAKTTVYLQMNSLKPEDTAVYYCNARSYLRDYDYWGQGTQVTVTS | high polyreactivity
QDQLVESGGVLVQAGGSLRLSCAASGSTFYYYAMGWYRQAPRKEREFVSSISSRRTSTYYADSVKGRLTISRDNAKNNVYLQMNSLKREDTAVYYCADTQYRSDGWRYDYWGQGTQVTVSS | high polyreactivity
QVQLVESGGGLVQAGGSLRLSCAASGSIFKQNAMGRYRQAPGKESELVSDITSCGGSTYYADSVKGRFTISRDNAKNTVYLQMNSLKPEDTAVYYCNVVETSLELGWQAFDYWGQGTQVTVSS | low polyreactivity
QVQHVESGRGLVQAGGSLRLSCDASGFTFRSYPIGWYRHAPGKERELVAGITWRGGRTYYADSVKGRFTISRDNAKNTVYLQMNSLKPEDTAVYNCAKLYRYIYGGMDYWGQGTQVTVSS | high polyreactivity
QVQLVESGGGLVQAGGSLRLSCAASGSIFRRNAMGWYRQAPGKEREFVAAITWNGGSTYYADSEKGRFTNSRDNAKNPVYLQRNSLKPEDTAVYYCAARAFYYAGDWYGYWGQGTQVTVSS | high polyreactivity
QVQLVESGGGLVQAGGSLRLSCAASGIIFPRYAMGWYRQAPGKEREVVAAITSGGSTYYADSVKGRFTISRDNAKNTVYLQINSLKPEDTAVSYCAAVRYSWDIYREYYYWGQGTQVTVSS | high polyreactivity
QVQLVESGGGLVQAGGSLRLSCAASGSILTLYSMGWYRQAPGKERELVAAISSTGGRTYYADSVKGRFTISRDNAKNTVYVQMNSLKPEDTAFYYCAARGWGGLRSYGYYYWGQGTQVTVSS | high polyreactivity
QVQLVESGGGLVQAGGSLRLTCAASGITLYNYAMGWYRQAPGKERELVAAISLSGGRTYYADSVKGRFTISRDNAKNTVYLQMNSLKPEDTAVYYCAADWLNSDPYNYWGQGTQVTVSS | low polyreactivity
QVQLVESGGGLVQAGGSLRLSCAASGRTFLVYTMGWYRQAPGKERELVAAISWSDGSTYYADSVKGRFTISRDNAKNTVYLQMNSLKPEDTAVYYCAARRTGYLYRYGYWGQGTQVTVSS | low polyreactivity
QVQRVESGGGLVQAGGSLRLSCAASGRTFPWNVMGWYRQAPGKERELVAAISWSSGRTYYADSVKGRFTISRDNAKNTVYLQMNSLKPEDTAVYYCAAVYKVHSGLYEYWGQGTQVTVSS | high polyreactivity
QVQLVESGGGLVQAGGSLRLSCAASGRTFYIYAMGWYRQAPGKERELVAAITYGGGRTFYADSVKGRFTISRDNAKNTVYLQMNSLKPEDTAVYYCAASVRGKRSTYDYWGQGTQVTVSS | high polyreactivity

Sequence | polyreactivity (PSR sort gate)
QVQLVESGGGLVQAGGSLRLSCAASGSILLDNAMGWSRQAPGKERELVAAISLSGGGSTYYADSVKGRFTISRDNAKNTVYLQMNSLKPEATAVYYCAAASTYPLPYDYWGQGTQVTVSS | low polyreactivity
QVHLVESGGGLVQAGGSLRLSCAASGSTFRLYAMRWNRQAPGKERELVASITFSDSNTSYADSVKGRFTISRDNAKNTVYLQMNSLKPEDTAVYYCAKETSYENVVYTFDYDYWGQGTQVTVSS | low polyreactivity
QVHLVESGGGLVQAGGSLRLSCAASGRIFWLYAMGWYRQAPGKERELVAAISSGGSTSYADSVKGRFTISRDNAKNTVYLQMNSLKPEDTAVYYCNATLLFPLLYGPESGEFDYWGQGTQVTVSS | low polyreactivity
QVQLVESGGGLVQAGGSLRLSCAASGNTFYANTMGWYRQARNERELVAAITSGTYADSVKGRFTISRDNAKNTVYLQMNSQKPEDTAVYYCAREESLYVTDPGPSKLDYWGQGTQVTVSS | low polyreactivity
QVQLVQSGGGLVQAGGSLRLSCAASGRPSLLMLWDGIDRRLGKKGSWLPLLTLVTPTTYADSVKGRFTISRDNAKNTVYLQMNSLKPEDTAVYYCNADFRPLDHYVNWYYYWGQGTQVTVSS | low polyreactivity
QVQLVESGGGLVQAGGTLRLSCAASGSTFRYYAMGWYRQAPGKERELVATITSDGSTNYADSVKGRFTFSRDNAKNTVYLQLNSLKPEDTAVYYCNARCRRYKSSNSWGQGTQVTVSS | high polyreactivity
QVQLVESGGGLVQAGGSLSLICAASGRIYPKYAMGWYRQAPGKERELVAGITKRVGSTYYADSVKGRFTISRDNAKHTVYLQMTSLKPEDTAGYYCAKRWVSGPHGYWGQGTQVTVSS | low polyreactivity
QVQLVESGGGLVQAGGSLRLSCAASGLIFESYAMGWYRQAPRKERELFAAITRSGARTYYADSVKGRFSISRDNAKNTVYLQMNILKPEDTAVYYCAAAPWYFFDQYFNGISFGYYYWGQGTQLTVSS | high polyreactivity
QVQLVESGGGLVQAGGSLRLSCAASGFIFDTYVMGWYRQAPGKERELVAAISRTGGRTYYADSVKGRFTISRDNAKNTVYLQMNSLKPEDTAVYYCAAKVYYPYLFTSYDYWGQGTQVTVSS | high polyreactivity
QVQLVESGGGLVQAGGSLRLSCAASGSILNRYAMGWYRQAPGKERELVAAISRRSGSTYYADSVKGRFTISRDNAKNTVYLQMNSLKPEDTAVYYCAATSSLGDFRYDYWGQGTQVTVSS | high polyreactivity
QVQLVESGGGLVQAGGSLRLSCAASGSTSYTNAMGWYRQAPGKERELVARITNDGSTTYADSVKGRFTISRDNAKNTVYLQMNSLKPEDTAVYYCARPYRFWRYYGMYYWGQGTQVTVSS | high polyreactivity
QVQLQESGGGLVQAGGTITLGYDMGWYRQAPGKEREFVAGIDTGAITYYADSVKGRFTNSRDNAKNTVYLQMNCLKPEDTAVYYCAAIQTHTYAHSYWGQGNQVTVSS | high polyreactivity
QVQLVESGGGLVQAGGSLRLSCAASGSTFGYYAMGWSRQAPGKERELVAAITGSGGSTYYADSVKGRFTISRDNAKNTVYLQMNSLKPEDTAVYYCATSYLLGRYYEYYYWGQGTQVTVSS | high polyreactivity
KVQLVESGRGLVQAGGSLLLICAASGSTFVDYAMGWYRQAPGKERELVAGINVSGGSTYYSDYVKGSFTISRDNSNNPVYLQMNSLNPEDTAVYYCAKVVSNRLALPAWDYNYWGQGTKVTVSS | low polyreactivity
QVQLVESGGGLVQAGGSLRLTCAASGRTSNGYAMGWYRQAPGNERELVAAYADSVKGRFTISRDNAKNTVYLQMNSLKPEETAVYYCNADYDPVSRVGYVYWAYYYWGQGTQVTVSS | low polyreactivity
QVQLVESGGGFFQAGGSLRLSCAASGNTFGINAMRWYREAPGKERELVAAISWSGDRTYYADSVKGRFTISRDNAKNTVYLQMNSLKPEDTAVYYCAAGKYRFTYYALEYDYWGQGTQVTVSS | low polyreactivity

— the nanobody polyreactivity screen of Harvey et al. (2022)
